From patent US20190192675A1 (Merck Sharp & Dohme, published 2019)
Non-standard residues stand in square brackets, D forms with d. No end group written: not given here. Lys(N3) = [N-]=[N+]=NCCCC[C@H](N)C(=O)O; Aib = CC(C)(N)C(=O)O

Tests used:
[1] = biological target: human Glucagon receptor (GCGR) (human, UniProt P47871 26-477); assay: cell-based or functional assay
[2] = biological target: human GLP-1 receptor (GLP1R) (human, UniProt P43220 24-463); assay: cell-based or functional assay
Sequence of human GLP-1 receptor (GLP1R) (P43220 24-463): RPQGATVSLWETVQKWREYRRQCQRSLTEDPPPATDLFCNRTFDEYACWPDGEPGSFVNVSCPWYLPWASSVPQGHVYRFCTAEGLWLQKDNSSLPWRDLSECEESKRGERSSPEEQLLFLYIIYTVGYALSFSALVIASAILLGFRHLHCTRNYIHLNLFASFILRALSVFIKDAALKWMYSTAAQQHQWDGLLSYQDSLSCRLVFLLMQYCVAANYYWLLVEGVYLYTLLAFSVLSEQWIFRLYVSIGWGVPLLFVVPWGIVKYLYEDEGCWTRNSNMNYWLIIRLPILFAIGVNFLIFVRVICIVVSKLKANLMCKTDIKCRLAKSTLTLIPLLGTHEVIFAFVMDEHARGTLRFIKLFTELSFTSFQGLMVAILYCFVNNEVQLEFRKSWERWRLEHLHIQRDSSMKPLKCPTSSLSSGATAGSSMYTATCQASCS

B1: PEP87 (peptide)
peptide: HXQGTFTSDKSKYLDERAAQDFVXWLLDT
modifications: D-Ser (s) at 2; K(γEγEC16) at 10; Nle(εN3) at 24; C-terminal amide
- hGCGR_EC50 (nM), cAMP activity assay [1]: 0.019 nM

B2: PEP89 (peptide)
peptide: H[Aib]QGTFTSDKSKYLD[Aib]RAAQDFVQWLMNTKQ[Lys(N3)]-NH2
- hGCGR_EC50 (nM), cAMP activity assay [1]: 3.9 nM
- hGLP1R EC50 (nM), cAMP activity assay [2]: 0.044 nM

B3: PEP88 (peptide)
peptide: HXQGTFTSDKSKYLDERAAQDFVXWLLDT
modifications: D-Ser (s) at 2; Nle(εN3) at 24; C-terminal amide
- hGCGR_EC50 (nM), cAMP activity assay [1]: 0.093 nM
- hGLP1R EC50 (nM), cAMP activity assay [2]: 0.09 nM
